The text below walks through data of article PMC10418629, “Functional Study of Amorpha fruticosa WRKY20 Gene in Response to Drought Stress”.

This data set has as its target T1, GST-AfWRKY20 (Amorpha fruticosa, UniProt A0A8K1R274 1-585).
T1 sequence: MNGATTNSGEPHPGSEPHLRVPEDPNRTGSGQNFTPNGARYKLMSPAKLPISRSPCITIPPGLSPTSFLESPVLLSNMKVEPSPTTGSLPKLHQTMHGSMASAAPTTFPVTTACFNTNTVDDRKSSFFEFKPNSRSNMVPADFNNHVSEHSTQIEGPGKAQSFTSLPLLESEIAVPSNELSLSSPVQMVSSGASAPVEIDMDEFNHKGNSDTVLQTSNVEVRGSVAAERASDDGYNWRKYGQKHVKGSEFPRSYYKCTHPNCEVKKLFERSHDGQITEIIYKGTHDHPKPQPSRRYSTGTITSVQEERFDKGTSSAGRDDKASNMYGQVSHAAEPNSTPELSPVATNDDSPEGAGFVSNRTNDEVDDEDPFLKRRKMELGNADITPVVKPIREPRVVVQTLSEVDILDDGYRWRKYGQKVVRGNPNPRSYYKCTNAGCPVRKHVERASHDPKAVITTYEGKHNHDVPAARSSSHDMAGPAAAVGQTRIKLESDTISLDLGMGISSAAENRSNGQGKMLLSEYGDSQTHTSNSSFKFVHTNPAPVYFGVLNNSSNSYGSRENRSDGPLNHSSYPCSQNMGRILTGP
The data set can be described thus: EMSA; unlabeled Cold-Pr competitor weakened the shift; EMSA kit (Biyuntian/Beyotime) per instructions; buffer, salt, pH and temperature not stated. The settings on record: protein: recombinant; tags: GST; blunt as designed; printed strands are not exact complements (F has GGAAC / GGGC, complement of R has GGAC / GGGGC; possible misprint).

B1: W-box probe (Biotin-Pr) (dsDNA)
DNA 1: GGAACTTGACCTTGACCTTAGGGCTGCAGGAATTCG
DNA 2: CGAATTCCTGCAGCCCCTAAGGTCAAGGTCAAGTCC
Turning to B1, the binding result was “binds”.
